According to patent publication US20200407452A1 (published 2020):

B1: 74C8 chimeric llama-human IgG1 mAb (antibody, V domains shown)
VH: EVQLVESGGGLVQPGGSLRLSCAASGFTFRNYHMSWVRQVPGKGFEWISDINSAGGSTYYADSVKGRFTISRDNAKNTLYLEMNSLKPEDTALYYCARVNVWGVNYWGKGTLVSVSS
VL: QTVVTQEPSLSVSPGGTVTLTCGLSSGSVTTSNYPGWFQQTPGQAPRTLIYNTNSRHSGVPSRFSGSISGNKAALTITGAQPEDEADYYCSLYPGSYTNVFGGGTHLTVL
notes: human IgG1 CH1-CH2-CH3 and human CL lambda
B2: 76G7 chimeric llama-human IgG1 mAb (antibody, V domains shown)
VH: QVQLVESGGNLVQPGGSLRLSCAASGFTFSNYYMSWVRQAPGKGLEWVSDIYSDGSTTWYSDSVKGRFTISRDNAKNTLSLQMNSLKSEDTAVYYCARVKIYPGGYDAWGQGTQVTVSS
VL: QAGLTQPPSVSGSPGKTVTISCAGNSSDVGYGNYVSWYQQFPGMAPKLLIYLVNKRASGITDRFSGSKSGNTASLTISGLQSEDEADYYCASYTGSNNIVFGGGTHLTVL
notes: as for B1
B3: 71G3 llama-mouse chimeric mAb (mouse IgG1/lambda) (antibody, V domains shown)
VH: QVQLVESGGGLVQPGGSLRVSCAASGFTFSTYYMSWVRQAPGKGLEWVSDIRTDGGTYYADSVKGRFTMSRDNAKNTLYLQMNSLKPEDTALYYCARTRIFPSGYDYWGQGTQVTVSS
VL: QAVVTQEPSLSVSPGGTVTLTCGLSSGSVTTSNYPGWFQQTPGQAPRTLIYNTNSRHSGVPSRFSGSISGNKAALTIMGAQPEDEADYYCSLYPGSTTVFGGGTHLTVLG
B4: 71G2 llama-mouse chimeric mAb (mouse IgG1/lambda) (antibody, V domains shown)
VH: EVQLQESGGGLVQPGGSLRLSCAASGFTFSIYDMSWVRQAPGKGLEWVSTINSDGSSTSYVDSVKGRFTISRDNAKNTLYLQMNSLKPEDTAVYYCAKVYGSTWDVGPMGYGMDYWGKGTLVTVSS
VL: SSALTQPSALSVSLGQTARITCQGGSLGSSYAHWYQQKPGQAPVLVIYGDDSRPSGIPERFSGSSSGGTATLTISGAQAEDEDDYYCQSTDSSGNTVFGGGTRLTVLG
B5: 72F8 chimeric llama-human IgG1 mAb (antibody, V domains shown)
VH: ELQLVESGGGLVQPGGSLRLSCAASGFTFSNYVMSWVRQAPGKGLEWVSDTNSGGSTSYADSVKGRFTISRDNAKNTLYLQMNSLKPEDTALYYCARSFFYGMNYWGKGTQVTVSS
VL: QSALTQPPSLSASPGSSVRLTCTLSSGNNIGSYDISWYQQKAGSPPRYLLNYYTDSRKHQDSGVPSRFSGSKDASANAGLLLISGLQPEDEADYYCSAYKSGSYRWVFGGGTHVTVL
notes: as for B1
B6: 71C3 chimeric llama-human IgG1 mAb (antibody, V domains shown)
VH: QLQLVESGGGLVQPGGSLRLSCAASGFTFSSHAMSWVRQAPGKGLEWVSAINSGGGSTSYADSVKGRFTISRDNAKNTLYLQMNSLKPEDTAVYYCAKELRFDLARYTDYEAWDYWGQGTQVTVSS
VL: SYELTQPSALSVTLGQTAKITCQGGSLGSSYAHWYQQKPGQAPVLVIYDDDSRPSGIPERFSGSSSGGTATLTISGAQAEDEGDYYCQSADSSGNAAVFGGGTHLTVL
notes: as for B1
B7: 71D4 chimeric llama-human IgG1 mAb (antibody, V domains shown)
VH: ELQLVESGGGLVQPGGSLRLSCAASGFTFSGYGMSWVRQAPGKGLEWVSDINSGGGSTSYADSVKGRFTISRDNAKNTLYLQMNSLKPEDTAVYYCAKDMRLYLARYNDYEAWDYWGQGTQVTVSS
VL: SSALTQPSALSVTLGQTAKITCQGGSLGSSYAHWYQQKPGQAPVLVIYDDDSRPSGIPERFSGSSSGGTATLTISGAQAEDEGDYYCQSADSSGNAAVFGGGTHLTVL
notes: as for B1
B8: 71G12 chimeric llama-human IgG1 mAb (antibody, V domains shown)
VH: QVQLQESGGDLVQPGGSLRVSCVVSGFTFSRYYMSWVRQAPGKGLEWVSSIDSYGYSTYYTDSVKGRFTISRDNAKNTLYLQMNSLKPEDTALYYCARAKTTWSYDYWGQGTQVTVSS
VL: EIVLTQSPSSVTASVGGKVTINCKSSQSVFIASNQKTYLNWYQQRPGQSPRLVISYASTRESGIPDRFSGSGSTTDFTLTISSVQPEDAAVYYCQQAYSHPTFGQGTKVELK
notes: human IgG1 CH1-CH2-CH3 and human CL kappa
B9: recombinant mouse HGF (R&D Systems) (ligand, UniProt Q08048 33-728, looked up)
chain: QKKRRNTLHEFKKSAKTTLTKEDPLLKIKTKKVNSADECANRCIRNRGFTFTCKAFVFDKSRKRCYWYPFNSMSSGVKKGFGHEFDLYENKDYIRNCIIGKGGSYKGTVSITKSGIKCQPWNSMIPHEHSFLPSSYRGKDLQENYCRNPRGEEGGPWCFTSNPEVRYEVCDIPQCSEVECMTCNGESYRGPMDHTESGKTCQRWDQQTPHRHKFLPERYPDKGFDDNYCRNPDGKPRPWCYTLDPDTPWEYCAIKTCAHSAVNETDVPMETTECIQGQGEGYRGTSNTIWNGIPCQRWDSQYPHKHDITPENFKCKDLRENYCRNPDGAESPWCFTTDPNIRVGYCSQIPKCDVSSGQDCYRGNGKNYMGNLSKTRSGLTCSMWDKNMEDLHRHIFWEPDASKLNKNYCRNPDDDAHGPWCYTGNPLIPWDYCPISRCEGDTTPTIVNLDHPVISCAKTKQLRVVNGIPTQTTVGWMVSLKYRNKHICGGSLIKESWVLTARQCFPARNKDLKDYEAWLGIHDVHERGEEKRKQILNISQLVYGPEGSDLVLLKLARPAILDNFVSTIDLPSYGCTIPEKTTCSIYGWGYTGLINADGLLRVAHLYIMGNEKCSQHHQGKVTLNESELCAGAEKIGSGPCEGDYGGPLICEQHKMRMVLGVIVPGRGCAIPNRPGIFVRVAYYAKWIHKVILTYKL
modifications: biotinylated at the N-terminus using NHS-LC-biotin (in the competition ELISA only)

Experiments:
[1] = target: T1, native human MET on living cells (human, UniProt P08581 25-1390); assay: cell-based or functional assay
[2] = target: T2, native mouse MET on living cells (mouse, UniProt P16056 25-1379); assay: cell-based or functional assay
[3] = target: T1, native human MET on living cells; assay: cell-based or functional assay; remark: listed apart in the source
[4] = target: T2, native mouse MET on living cells; assay: cell-based or functional assay; remark: listed apart in the source
human MET ECD [5] = target: T3, human MET ECD (human, UniProt P08581 25-932); assay: ELISA, MET ECD coated, mAb 0-20 nM
T3 construct: range 1-932; recombinant; range as printed includes the signal peptide; also called hMET; hMET ECD
Description: (§1) Production (by transient transfection of mammalian cells) and purification (by protein A affinity chromatography) of the resulting chimeric llama-human IgG1 molecules was outsourced to U-protein Express. Binding of chimeric mAbs to MET was determined by ELISA using hMET or mMET ECD in solid phase and increasing concentrations of antibodies (0-20 nM) in solution. […] Binding capacity (EMAX) varied from antibody to antibody, possibly due to partial epitope exposure in the immobilized antigen, but was similar in the human and mouse setting.

mouse MET ECD = target: T4, mouse MET ECD (mouse, UniProt P16056 25-931); assay: ELISA, MET ECD coated, mAb 0-20 nM
T4 construct: range 1-931; recombinant; range as printed includes the signal peptide; also called mMET; mMET ECD
Description: as §1

[6] = target: T1, native human MET on living cells; assay: cell-based or functional assay; remark: listed apart in the source
[7] = target: T2, native mouse MET on living cells; assay: cell-based or functional assay; remark: listed apart in the source
[8] = target: human MET ECD mutant D (mutations 1, 2) (human) (UniProt P08581); assay: ELISA, WT or mutant hMET ECD coated
[9] = target: human MET ECD mutant A (mutations 1, 2, 3) (human) (UniProt P08581); assay: ELISA, WT or mutant hMET ECD coated
[10] = target: human MET ECD mutant H (mutations 2, 4) (human) (UniProt P08581); assay: ELISA, WT or mutant hMET ECD coated
[11] = target: human MET ECD mutant E (mutations 2, 3, 4) (human) (UniProt P08581); assay: ELISA, WT or mutant hMET ECD coated
human MET ECD [12] = target: T3, human MET ECD; assay: ELISA, WT or mutant hMET ECD coated
Description: Using human MET as a template, we mutagenized each of these residues in different permutations, generating a series of MET mutants that are fully human except for specific residues, which are llama. Next, we tested the affinity of selected SEMA-binding mAbs (71D6, 71C3, 71D4, 71A3, 71G2) and PSI-binding mAbs (76H10 and 71G3) for these MET mutants by ELISA. To this end, the various MET proteins were immobilized in solid phase (100 ng/well in a 96-well plate) and then exposed to increasing concentrations of antibodies (0-50 nM) solution. […] Wild-type human MET was used as positive control.
TABLE 24 The epitopes of MET responsible for agonistic antibody binding represent residues conserved among H. sapiens, M. musculus, R. norvegicus, M. fascicularis but not among the same species and L. glama. The relevance of residues conserved among human, mouse, rat, cynomolgus monkey but not llama MET for binding to agonistic mAbs was tested by ELISA. Wild-type (WT) or mutant (MT) human MET ECD was immobilized in solid phase and exposed to increasing concentrations of mAbs in solution. […] All binding values were normalized to the WT protein and are expressed as % binding (EMAX) compared to WT MET.

Binder	protection from staurosporine-induced apoptosis EC50, MCF10A cells [1] [nM]	protection from staurosporine-induced apoptosis EMAX, MCF10A cells [1] [%]	protection from staurosporine-induced apoptosis EC50, MLP29 cells [2] [nM]	protection from staurosporine-induced apoptosis EMAX, MLP29 cells [2] [%]	phospho-MET ELISA EMAX, A549 cells [3] [% HGF activity]	phospho-MET ELISA EMAX, MLP29 cells [4] [% HGF activity]	EMAX (human MET ECD [5]) [OD450 AU]	EMAX (mouse MET ECD) [OD450 AU]	LOC br. m. (branch n.) [6] [branches per spheroid]	MLP29 br. m. (branch n.) [7] [branches per spheroid]	% binding (EMAX) vs WT MET ECD [8] [%]	% binding (EMAX) vs WT MET ECD [9] [%]	% binding (EMAX) vs WT MET ECD [10] [%]	% binding (EMAX) vs WT MET ECD [11] [%]	% binding (EMAX) vs WT MET ECD (human MET ECD [12]) [%]
B1	> 32	41.7	> 32	37.5	87.6	102	0.994	0.896	–	–	–	–	–	–	–
B2	25.4	51.9	30.1	50.2	62.3	71.5	2.62	2.78	–	–	–	–	–	–	–
B3	–	–	–	–	–	–	–	–	20.8	30.1	–	–	–	–	–
B4	–	–	–	–	–	–	–	–	29.8	41.2	–	–	–	–	–
B5	> 32	35.8	> 32	43.8	69.7	66.8	2.78	2.9	–	–	–	–	–	–	–
B6	31.9	50.2	31	51.3	86.2	98.8	2.46	2.24	–	–	102	99.8	61.6	59.6	100
B7	30.2	51.7	29.8	52.1	84.6	95.3	1.43	1.17	–	–	120	114	58.7	57.2	100
B8	> 32	39.4	> 32	39.7	70.6	75.4	3.08	2.97	–	–	–	–	–	–	–
B9	–	–	5.35	58.6	–	100	–	–	–	–	–	–	–	–	–
